# In patent publication US20240392262A1, “TRANSPOSASE AND USES THEREOF” (Poseida Therapeutics, Inc., published 2024):
# T1: GFP2 Right TAL-PBx (synthetic construct)
# T1 chain: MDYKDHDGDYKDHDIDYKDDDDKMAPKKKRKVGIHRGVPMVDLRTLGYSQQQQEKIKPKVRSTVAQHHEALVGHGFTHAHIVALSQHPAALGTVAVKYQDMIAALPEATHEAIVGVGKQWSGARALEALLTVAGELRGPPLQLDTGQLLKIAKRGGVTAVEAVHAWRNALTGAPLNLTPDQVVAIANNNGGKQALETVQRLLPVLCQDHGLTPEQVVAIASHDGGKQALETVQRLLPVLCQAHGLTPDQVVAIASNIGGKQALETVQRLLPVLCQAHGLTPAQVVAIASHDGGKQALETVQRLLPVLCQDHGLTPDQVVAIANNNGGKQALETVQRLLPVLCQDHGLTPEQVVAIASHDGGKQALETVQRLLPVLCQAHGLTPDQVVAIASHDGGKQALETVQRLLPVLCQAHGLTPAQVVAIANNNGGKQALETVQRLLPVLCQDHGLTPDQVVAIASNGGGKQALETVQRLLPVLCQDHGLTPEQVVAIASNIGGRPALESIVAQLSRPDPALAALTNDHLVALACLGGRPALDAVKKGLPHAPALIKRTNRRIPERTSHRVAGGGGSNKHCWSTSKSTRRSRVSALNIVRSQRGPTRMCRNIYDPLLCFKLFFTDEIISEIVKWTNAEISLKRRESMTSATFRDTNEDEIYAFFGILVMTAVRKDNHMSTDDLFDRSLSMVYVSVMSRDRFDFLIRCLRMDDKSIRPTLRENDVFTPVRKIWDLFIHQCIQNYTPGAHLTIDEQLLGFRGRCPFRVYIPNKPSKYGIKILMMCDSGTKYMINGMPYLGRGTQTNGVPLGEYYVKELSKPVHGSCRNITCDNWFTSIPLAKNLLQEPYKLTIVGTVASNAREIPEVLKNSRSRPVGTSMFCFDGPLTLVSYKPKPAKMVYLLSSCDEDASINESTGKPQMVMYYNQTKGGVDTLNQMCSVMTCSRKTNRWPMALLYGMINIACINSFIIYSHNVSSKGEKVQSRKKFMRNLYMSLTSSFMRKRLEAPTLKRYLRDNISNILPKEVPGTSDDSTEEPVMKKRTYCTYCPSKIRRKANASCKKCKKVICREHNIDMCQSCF
# T2: ZFM268 TAL-PBx (synthetic construct)
# T2 chain: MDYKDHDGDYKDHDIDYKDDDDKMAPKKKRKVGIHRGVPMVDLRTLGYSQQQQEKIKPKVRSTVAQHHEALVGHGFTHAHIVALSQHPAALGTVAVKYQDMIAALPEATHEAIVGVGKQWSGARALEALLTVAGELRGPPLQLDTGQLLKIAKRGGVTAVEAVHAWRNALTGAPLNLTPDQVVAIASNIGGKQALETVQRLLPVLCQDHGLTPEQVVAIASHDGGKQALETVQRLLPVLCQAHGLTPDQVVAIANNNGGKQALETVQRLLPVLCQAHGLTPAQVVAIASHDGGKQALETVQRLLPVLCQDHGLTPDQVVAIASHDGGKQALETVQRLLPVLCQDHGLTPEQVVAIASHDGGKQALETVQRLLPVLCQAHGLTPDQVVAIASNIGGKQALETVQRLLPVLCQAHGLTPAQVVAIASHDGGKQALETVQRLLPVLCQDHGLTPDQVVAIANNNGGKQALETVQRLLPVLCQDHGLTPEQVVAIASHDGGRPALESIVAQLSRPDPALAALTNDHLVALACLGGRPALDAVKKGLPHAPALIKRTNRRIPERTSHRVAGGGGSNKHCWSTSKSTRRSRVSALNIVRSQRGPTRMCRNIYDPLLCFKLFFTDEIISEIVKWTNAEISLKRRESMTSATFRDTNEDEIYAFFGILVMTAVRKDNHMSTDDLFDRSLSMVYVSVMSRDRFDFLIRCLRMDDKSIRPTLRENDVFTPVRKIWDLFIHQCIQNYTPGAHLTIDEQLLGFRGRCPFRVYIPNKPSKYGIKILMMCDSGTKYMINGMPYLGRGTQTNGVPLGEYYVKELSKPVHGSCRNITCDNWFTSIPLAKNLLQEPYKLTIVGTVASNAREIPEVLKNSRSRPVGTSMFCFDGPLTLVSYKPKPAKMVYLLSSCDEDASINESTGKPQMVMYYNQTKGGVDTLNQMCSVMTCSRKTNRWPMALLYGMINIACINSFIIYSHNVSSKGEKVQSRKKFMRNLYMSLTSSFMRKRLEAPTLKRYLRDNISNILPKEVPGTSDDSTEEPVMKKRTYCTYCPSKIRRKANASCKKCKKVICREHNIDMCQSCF
# T3: GFP2 Left TAL-PBx (synthetic construct)
# T3 chain: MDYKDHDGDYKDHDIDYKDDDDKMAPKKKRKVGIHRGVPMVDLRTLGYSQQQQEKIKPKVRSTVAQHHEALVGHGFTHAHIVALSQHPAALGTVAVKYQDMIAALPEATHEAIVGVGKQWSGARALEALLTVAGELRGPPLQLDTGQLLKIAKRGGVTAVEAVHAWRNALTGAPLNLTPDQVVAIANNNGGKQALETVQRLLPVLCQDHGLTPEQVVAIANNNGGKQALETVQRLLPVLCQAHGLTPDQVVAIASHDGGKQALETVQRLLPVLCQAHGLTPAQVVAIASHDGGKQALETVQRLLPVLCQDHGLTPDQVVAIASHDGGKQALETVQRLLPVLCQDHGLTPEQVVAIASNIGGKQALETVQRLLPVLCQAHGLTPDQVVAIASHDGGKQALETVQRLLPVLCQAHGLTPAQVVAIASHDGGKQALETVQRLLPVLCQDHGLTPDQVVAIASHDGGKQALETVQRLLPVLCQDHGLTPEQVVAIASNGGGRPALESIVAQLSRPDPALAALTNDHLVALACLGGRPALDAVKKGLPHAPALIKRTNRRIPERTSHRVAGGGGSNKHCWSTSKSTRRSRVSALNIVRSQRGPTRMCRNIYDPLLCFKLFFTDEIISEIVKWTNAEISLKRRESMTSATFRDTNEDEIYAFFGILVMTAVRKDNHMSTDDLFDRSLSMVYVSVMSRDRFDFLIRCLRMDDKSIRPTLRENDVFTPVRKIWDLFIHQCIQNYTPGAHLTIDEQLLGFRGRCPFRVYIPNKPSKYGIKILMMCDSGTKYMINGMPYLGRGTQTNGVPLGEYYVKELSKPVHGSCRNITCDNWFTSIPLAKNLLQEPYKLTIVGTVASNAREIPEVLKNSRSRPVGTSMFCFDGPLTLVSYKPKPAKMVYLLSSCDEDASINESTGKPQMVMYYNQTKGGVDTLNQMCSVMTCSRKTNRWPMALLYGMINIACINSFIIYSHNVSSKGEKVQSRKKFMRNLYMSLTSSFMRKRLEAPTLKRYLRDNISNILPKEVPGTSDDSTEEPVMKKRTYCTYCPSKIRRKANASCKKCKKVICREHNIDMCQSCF
# T4: GFP1 Left TAL-PBx (synthetic construct)
# T4 chain: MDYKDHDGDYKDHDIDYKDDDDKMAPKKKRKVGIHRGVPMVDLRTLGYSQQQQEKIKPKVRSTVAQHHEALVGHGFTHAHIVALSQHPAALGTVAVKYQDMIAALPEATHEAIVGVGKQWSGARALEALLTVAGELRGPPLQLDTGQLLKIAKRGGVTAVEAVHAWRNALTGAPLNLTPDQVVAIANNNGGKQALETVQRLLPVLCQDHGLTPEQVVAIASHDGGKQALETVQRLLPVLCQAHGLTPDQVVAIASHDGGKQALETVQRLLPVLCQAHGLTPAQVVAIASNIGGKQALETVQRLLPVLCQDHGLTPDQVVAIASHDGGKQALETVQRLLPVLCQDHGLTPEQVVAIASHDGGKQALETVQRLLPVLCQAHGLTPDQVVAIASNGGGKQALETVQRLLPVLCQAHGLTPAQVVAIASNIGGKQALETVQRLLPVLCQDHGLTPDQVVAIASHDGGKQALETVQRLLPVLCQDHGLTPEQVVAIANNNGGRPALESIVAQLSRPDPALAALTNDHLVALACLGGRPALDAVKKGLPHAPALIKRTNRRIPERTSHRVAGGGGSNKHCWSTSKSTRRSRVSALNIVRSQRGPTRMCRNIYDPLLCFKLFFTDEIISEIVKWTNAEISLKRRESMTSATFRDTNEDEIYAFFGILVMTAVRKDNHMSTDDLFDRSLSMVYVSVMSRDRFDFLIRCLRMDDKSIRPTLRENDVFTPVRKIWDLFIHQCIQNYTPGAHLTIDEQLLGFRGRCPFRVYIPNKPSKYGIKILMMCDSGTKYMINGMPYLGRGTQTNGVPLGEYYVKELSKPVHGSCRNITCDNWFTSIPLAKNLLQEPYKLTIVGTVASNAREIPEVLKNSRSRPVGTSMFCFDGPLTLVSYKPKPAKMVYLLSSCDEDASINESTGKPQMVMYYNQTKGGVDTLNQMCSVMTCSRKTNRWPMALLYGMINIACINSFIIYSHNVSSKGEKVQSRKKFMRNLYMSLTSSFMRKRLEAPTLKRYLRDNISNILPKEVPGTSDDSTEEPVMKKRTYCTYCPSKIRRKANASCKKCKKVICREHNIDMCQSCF
# B1: GFP2R 12 bp spacer (dsDNA)
# DNA 1: TGCACGCCGTAGCAATCTCCGGCTTAACTACTGACTGAATACGGCGTGCA
# DNA 2: TGCACGCCGTATTCAGTCAGTAGTTAAGCCGGAGATTGCTACGGCGTGCA
# B2: ZFM268 TAL 13 bp spacer (dsDNA)
# DNA 1: TACGCCCACGCGCAATCTCACGGCTTAACTACTGACCTGAAGCGTGGGCGTA
# DNA 2: TACGCCCACGCTTCAGGTCAGTAGTTAAGCCGTGAGATTGCGCGTGGGCGTA
# B3: GFP2R 13 bp spacer (dsDNA)
# DNA 1: TGCACGCCGTAGCAATCTCACGGCTTAACTACTGACCTGAATACGGCGTGCA
# DNA 2: TGCACGCCGTATTCAGGTCAGTAGTTAAGCCGTGAGATTGCTACGGCGTGCA
# B4: GFP2L 12 bp spacer (dsDNA)
# DNA 1: TGGCCCACCCTGCAATCTCCGGCTTAACTACTGACTGAAAGGGTGGGCCA
# DNA 2: TGGCCCACCCTTTCAGTCAGTAGTTAAGCCGGAGATTGCAGGGTGGGCCA
# B5: GFP1L 12 bp spacer (dsDNA)
# DNA 1: TGCCACCTACGGCAATCTCCGGCTTAACTACTGACTGAACGTAGGTGGCA
# DNA 2: TGCCACCTACGTTCAGTCAGTAGTTAAGCCGGAGATTGCCGTAGGTGGCA
# B6: GFP2L 13 bp spacer (dsDNA)
# DNA 1: TGGCCCACCCTGCAATCTCACGGCTTAACTACTGACCTGAAAGGGTGGGCCA
# DNA 2: TGGCCCACCCTTTCAGGTCAGTAGTTAAGCCGTGAGATTGCAGGGTGGGCCA
# B7: GFP1L 13 bp spacer (dsDNA)
# DNA 1: TGCCACCTACGGCAATCTCACGGCTTAACTACTGACCTGAACGTAGGTGGCA
# DNA 2: TGCCACCTACGTTCAGGTCAGTAGTTAAGCCGTGAGATTGCCGTAGGTGGCA
# B8: ZFM268 TAL 12 bp spacer (dsDNA)
# DNA 1: TACGCCCACGCGCAATCTCCGGCTTAACTACTGACTGAAGCGTGGGCGTA
# DNA 2: TACGCCCACGCTTCAGTCAGTAGTTAAGCCGGAGATTGCGCGTGGGCGTA
# Tests used:
# Test in all cases: cell_activity; split GFP integration
# Details in all cases: tags: 3xFlag, SV40 NLS; chain copies: 2
# [1] = target: T1, GFP2 Right TAL-PBx
# Experimental: (§1) To determine if the optimal spacer length is consistent from one TAL-ssSPB to the next, similar reporters were constructed with TAL target sites for the GFP1 Left, GFP2 Right, GFP2 Left, and ZFM268 TAL-PBxs as described above. These constructs were tested using a narrower set of spacer lengths of 11 bp, 12 bp, 13 bp, 14 bp, 15 bp constructs for GFP1 Left (SEQ ID Nos. 345-349), GFP2 Left (SEQ ID Nos. 350-354), GFP2 Right (SEQ ID Nos. 355-359) and ZFM268 (SEQ ID NOs: 340-344).
# (§2) Each reporter plasmid and the donor plasmid were cotransfected into HEK293T cells with the corresponding TAL-ssSPB expression plasmid. 120,000 HEK293T cells were plated in 24 well plates in 500 ul of DMEM medium supplemented with 10% FBS. The following day, a transfection mixture containing 50 ng of the TAL-ssSPB expression vector, 225 ng of the reporter plasmid, 225 ng of donor plasmid and 1 μl of JetPrime transfection reagent in a total volume of 50 μl of JetPrime buffer were assembled. The mixture was added to the HEK293T cells and the cells were incubated for four days at 37° C. at 5% CO2, splitting the cells 1:6 at day one. The percentage of on-target site-specific transposition positive cells for the various spacer length constructs were determined by FACS analysis and the results are shown in Table 18.
# [2] = target: T2, ZFM268 TAL-PBx
# Experimental: as §1, §2
# [3] = target: T3, GFP2 Left TAL-PBx
# Experimental: as §1, §2
# [4] = target: T4, GFP1 Left TAL-PBx
# Experimental: as §1, §2
binder,measurement,setting,value
B1,activity,[1],16.9 % GFP+
B2,activity,[2],21.2 % GFP+
B3,activity,[1],15.8 % GFP+
B4,activity,[3],22.4 % GFP+
B5,activity,[4],13.7 % GFP+
B6,activity,[3],23.5 % GFP+
B7,activity,[4],17 % GFP+
B8,activity,[2],21.8 % GFP+
